Here are results for 8 substances from PMC8346855.

Usually Kd stands for the free concentration of one partner at which half of the binding sites on the other are occupied at equilibrium, for simple one-to-one binding.

For assay [1], the target named is thermostabilized turkey beta-1 adrenergic receptor (turkey) (UniProt P07700). Kind of assay: cross-linking; isoprenaline-bound β1AR with Gαi or β-arrestin-1 at equimolar concentration; BS(PEG)9, high-mass MALDI-MS; percent complex by normalisation with β-Gal.
Assay [2] shares this target. Kind of assay: cross-linking; apo β1AR with Gαi or β-arrestin-1 at equimolar concentration; BS(PEG)9, high-mass MALDI-MS; percent complex by normalisation with β-Gal.
For assay [3] the target is unchanged. Kind of assay: cross-linking; carvedilol-bound β1AR with Gαi or β-arrestin-1 at equimolar concentration; BS(PEG)9, high-mass MALDI-MS; percent complex by normalisation with β-Gal.
For assay [4] the target is unchanged. In words: cross-linking; Kd by titrating the G protein against the apo GPCR; 20 mM Hepes pH 7.5, 40 mM NaCl, 0.01% lauryl maltose neopentyl glycol; BS(PEG)9, high-mass MALDI-MS, normalised to β-galactosidase.
The target is the same in assay [5]. Kind of assay: cross-linking; Kd by titrating the partner protein against isoprenaline-bound β1AR; 20 mM Hepes pH 7.5, 40 mM NaCl, 0.01% lauryl maltose neopentyl glycol; BS(PEG)9, high-mass MALDI-MS, normalised to β-galactosidase.
Assay [6] addresses mouse angiotensin II type 1 receptor F117W Δ324 with a C-terminal 1D4 tag (mouse). In words: cross-linking + other: high-mass MALDI-MS; ligand-free (apo) GPCR, 5 µM, mixed with partner protein at various concentrations, 1 h at room temperature, BS(PEG)9 cross-linking, β-Gal as internal standard; 20 mM Hepes pH 7.5, 40 mM NaCl, 0.01% LMNG; Ka = 1/Kd.
Assay [7] addresses angiotensin II-bound mouse angiotensin II type 1 receptor F117W Δ324 (mouse | human). In words: cross-linking + other: high-mass MALDI-MS; angiotensin II-bound AT1R (angII-AT1R), 5 µM, mixed with partner protein at various concentrations, 1 h at room temperature, BS(PEG)9 cross-linking, 1.0 µM β-Gal as internal standard; 20 mM Hepes pH 7.5, 40 mM NaCl, 0.01% LMNG; Ka = 1/Kd.
For assay [8], the target named is angiotensin II-bound F117W mutant of mouse angiotensin II type 1 receptor (mouse | not stated) (UniProt P29754). In words: cross-linking; Kd by titrating the G protein against ligand-bound AT1R; 20 mM Hepes pH 7.5, 40 mM NaCl, 0.01% lauryl maltose neopentyl glycol; BS(PEG)9, high-mass MALDI-MS, normalised to β-galactosidase.
Assay [9] addresses thermostabilized turkey beta-1 adrenergic receptor (turkey) (UniProt P07700). Kind of assay: cross-linking; β1AR and partner with 1 or 25 µM s32212 at increasing concentrations of isoprenaline; BS(PEG)9, high-mass MALDI-MS.

Sequence of full-length wild-type β-arrestin-1 (P49407 whole entry): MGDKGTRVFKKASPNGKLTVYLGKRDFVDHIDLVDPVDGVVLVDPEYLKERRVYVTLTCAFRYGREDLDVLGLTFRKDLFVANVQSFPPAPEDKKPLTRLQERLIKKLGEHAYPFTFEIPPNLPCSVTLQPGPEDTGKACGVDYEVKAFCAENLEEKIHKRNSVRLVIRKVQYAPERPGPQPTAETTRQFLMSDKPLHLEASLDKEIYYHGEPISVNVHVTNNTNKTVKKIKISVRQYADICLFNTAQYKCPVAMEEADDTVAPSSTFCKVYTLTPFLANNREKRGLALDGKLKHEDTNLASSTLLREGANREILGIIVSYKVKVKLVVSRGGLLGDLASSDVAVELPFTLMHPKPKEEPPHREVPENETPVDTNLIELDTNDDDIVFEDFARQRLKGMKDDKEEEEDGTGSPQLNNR
Sequence of thermostabilized turkey beta-1 adrenergic receptor (turkey) (P07700 whole entry): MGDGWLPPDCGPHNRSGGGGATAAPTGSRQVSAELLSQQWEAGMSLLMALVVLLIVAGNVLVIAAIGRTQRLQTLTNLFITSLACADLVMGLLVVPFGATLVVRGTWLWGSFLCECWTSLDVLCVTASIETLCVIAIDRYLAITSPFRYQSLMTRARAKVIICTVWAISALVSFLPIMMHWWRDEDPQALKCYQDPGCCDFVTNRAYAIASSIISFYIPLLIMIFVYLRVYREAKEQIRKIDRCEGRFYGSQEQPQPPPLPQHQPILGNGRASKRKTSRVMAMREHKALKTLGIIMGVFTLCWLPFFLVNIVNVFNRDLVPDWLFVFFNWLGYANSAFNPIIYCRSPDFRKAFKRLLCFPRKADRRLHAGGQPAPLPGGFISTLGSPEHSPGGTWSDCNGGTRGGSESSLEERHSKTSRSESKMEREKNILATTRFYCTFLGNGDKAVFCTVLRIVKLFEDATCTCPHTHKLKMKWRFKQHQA

Turning to “full-length wild-type Gαi (from UniProt P63096 1-354) (natural protein)”, the complex formation in assay [1] came to 60%; in assay [2], 60%; in [3], 92%.

Take “full-length wild-type β-arrestin-1 (from UniProt P49407 1-418) (natural protein)”: the values for the complex formation in [1], in assay [2] and in [3] were 32%, 32% and 88%, respectively.

On to “mGo truncated by its last five residues (domain or fragment)”, for which the values for the Kd in assay [4] and in assay [5] were 0.28 µM and 0.23 µM, respectively.

In the case of mini-Go (domain or fragment), the values for the Ka in assay [6] and in assay [7] were 270000 M⁻¹ and 1.02e+06 M⁻¹, respectively.

The substance “mini-Gα protein mGi (domain or fragment)” returned a Kd in assay [5] of 1.62 µM.

In the case of “mini-Gα protein mGo (domain or fragment)”, the Kd in assay [4] and in assay [5] was 0.25 µM throughout. The substance also came in with a binding strength relative to mGq in assay [8] of 2 fold.

Turning to “mini-Gα protein mGq (domain or fragment)”, the Kd in assay [5] was determined as 1.24 µM.

In assay [9], “mini-Gα protein mGs (from UniProt P63092 87-394) (domain or fragment)” had a complex formation recovered by raising isoprenaline (with s32212) of 80%. In [5], this substance showed a Kd of 0.35 µM.
